From publication PMC5506826 come the findings set out here.

Details in all cases: EMSA: 40 mM Tris-HCl pH 8, 100 mM KCl, 0.5 mM DTT, 0.05% NP40, 2 mM spermidine, 0.2 mM EDTA, 8% glycerol, 15 ng/ul herring sperm DNA, 30 min room temperature …
The subject of data set [1] is T1, 6His-SUMO-RegA (Acidithiobacillus ferrooxidans ATCC 23270T), ORF:158a6978.
T1 sequence: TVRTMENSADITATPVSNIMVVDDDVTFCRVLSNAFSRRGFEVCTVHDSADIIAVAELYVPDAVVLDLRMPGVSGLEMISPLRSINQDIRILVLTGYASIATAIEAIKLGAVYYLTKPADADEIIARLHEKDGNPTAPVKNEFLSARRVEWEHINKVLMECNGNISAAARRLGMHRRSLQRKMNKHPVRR
The data set can be described thus: EMSA. On the technique in general: In EMSA bound probe runs differently from free probe, usually more slowly.

Data set [2] shares this test system. The data set can be described thus: DLS.
Data set [3] concerns T2, RegA-HTH-6His (Acidithiobacillus ferrooxidans ATCC 23270T), ORF:158a6978.
T2 sequence: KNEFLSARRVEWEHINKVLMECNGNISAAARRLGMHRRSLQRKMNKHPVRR
The data set can be described thus: EMSA.

Consider “TGTCAGTTTTTGGGACATTTTAGTGATCGCGGCATATAATTAAAAGGCCAGATTAACATGTTTAAATAACGTTAGCACATAATTCTTTTCTTATGTTCTTTATTTAAGTTATTGTGTTTTAGTGGATCCGTATCGTGATG (double strand) [rus PI 140 bp]”, for which, in data set [1], the binding result was “binds”.

For “CCCCAGTCATGAAGCCTACCGTGGTAATCGCCCCCCTTGCGGTTAAGCTAACTACTTCTGGTAAACCCCACTTCCATGGTGTGACGGGCGGTGTG (double strand) [rrs 16S 95 bp]”, the binding entry in data set [2] and in data set [3] was “no binding” each time.

On to “CATTATGCGGCTGGCACAATACATGCATAAAACATCTCGTGCTGCCGCGGGATTCTCATTTTCATTTACTCATTGAATATCATAAGCGGGATGCAGCCATAAATATAACGCTGGTTGTGTTATTGGGAGCGAGCATTTAATTCTGTTGATATCGTTTATGGGAATAACAAAAGTGGAGACGCAGCTGAAAAAGCGAAGCTGATGACAGAGTACGTTATACCTCACCAAATGGATTGGAGACTTGATATGCC (double strand) [tet 251 bp]”, for which, in data set [1], the binding entry is reported as “binds”.
